Source: PMC6792017 (The EMBO Journal, 2019)

Biological target: T1, HA-tagged caspase-1 p10 plus p20 C285S active-site mutant (human, UniProt P29466 120-297; P29466 317-404, C285S)
T1 sequence (looked up) 1: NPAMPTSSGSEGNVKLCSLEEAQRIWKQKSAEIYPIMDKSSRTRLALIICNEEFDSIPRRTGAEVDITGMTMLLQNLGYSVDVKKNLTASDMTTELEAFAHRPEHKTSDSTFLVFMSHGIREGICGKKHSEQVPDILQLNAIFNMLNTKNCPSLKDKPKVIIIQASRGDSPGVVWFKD
T1 sequence (looked up) 2: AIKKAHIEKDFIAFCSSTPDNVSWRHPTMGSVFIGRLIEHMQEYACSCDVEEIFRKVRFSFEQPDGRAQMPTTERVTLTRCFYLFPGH
Assay: non-reducing SDS-PAGE with Western blot

B1: active recombinant human PRDX4 (non-reduced) (enzyme, UniProt Q13162 38-271, looked up)
chain: WETEERPRTREEECHFYAGGQVYPGEASRVSVADHSLHLSKAKISKPAPYWEGTAVIDGEFKELKLTDYRGKYLVFFFYPLDFTFVCPTEIIAFGDRLEEFRSINTEVVACSVDSQFTHLAWINTPRRQGGLGPIRIPLLSDLTHQISKDYGVYLEDSGHTLRGLFIIDDKGILRQITLNDLPVGRSVDETLRLVQAFQYTDKHGEVCPAGWKPGSETIIPDPAGKLKYFDKLN
  binding result: binds
